# Assay results reported in PMC8595303, “Dramatic activation of an antibody by a single amino acid change in framework” (Scientific Reports, 2021).
# Substitutions are numbered along the chain they refer to. Numbers in names are those of the source.
# B1: h4A11.v2.1 (antibody, V domains shown)
# VH: EQQLVESGGGLVQPGGSLSLSCAVSGFSLSSYTVNWVRQAPGKGLEWIGYISYGGSAYYASWANGRFTISKDSAKNSVYLQMNSLRAEDTAVYFCARHMQVGGAPTGSMAAFDPWGPGTLVTVSS
# VL: DAQLTQSPSSLSASVGDRVTITCQSSQSVYNNNYLSWFQQKPGKPPKLLIYGASTLTSGVPSRFSGSGSGTDFTLTISSLQPEDFATYYCAGGYSGSSDKYAFGGGTKVEIK
# notes: as the VH of m7 (h4A11.v2) with the stated change; numbers count on: Kabat numbering of the heavy chain; as the VL of m7 (h4A11.v2); human IgG1; also called v2.1_R19S; source: Expi293F, transient, purified (Protein A, SEC)
# B2: h4A11.v2.2 (antibody, V domains shown)
# VH: B1 VH with S19R, Q81N
# VL: B1 VL
# notes: as the VH of m7 (h4A11.v2) with the stated change; numbers count on: Kabat numbering of the heavy chain; as the VL of m7 (h4A11.v2); human IgG1; also called v2.2_Q81N; source: Expi293F, transient, purified (Protein A, SEC)
# B3: h4A11.v2.3 (antibody, V domains shown)
# VH: B1 VH with S19R, Q81A
# VL: B1 VL
# notes: as the VH of m7 (h4A11.v2) with the stated change; numbers count on: Kabat numbering of the heavy chain; as the VL of m7 (h4A11.v2); human IgG1; also called v2.3_Q81A; source: Expi293F, transient, purified (Protein A, SEC)
# B4: h4A11.v2.4 (antibody, V domains shown)
# VH: B1 VH with Y79S
# VL: B1 VL
# notes: as the VH of m7 (h4A11.v2) with the stated changes; numbers count on: Kabat numbering of the heavy chain; as the VL of m7 (h4A11.v2); human IgG1; also called v2.4_ R19S, Y79S; source: Expi293F, transient, purified (Protein A, SEC)
# B5: h4A11.v2.5 (antibody, V domains shown)
# VH: B1 VH with Q81S
# VL: B1 VL
# notes: as the VH of m7 (h4A11.v2) with the stated changes; numbers count on: Kabat numbering of the heavy chain; as the VL of m7 (h4A11.v2); human IgG1; also called v2.5_ R19S, Q81S; source: Expi293F, transient, purified (Protein A, SEC)
# B6: h4A11.v2.6 (antibody, V domains shown)
# VH: B1 VH with Y79S, Q81S
# VL: B1 VL
# notes: as the VH of m7 (h4A11.v2) with the stated changes; numbers count on: Kabat numbering of the heavy chain; as the VL of m7 (h4A11.v2); human IgG1; also called v2.6_ R19S, Y79S, Q81S; source: Expi293F, transient, purified (Protein A, SEC)
# B7: h4A11.v7.1 (antibody, V domains shown)
# VH: EQQLQESGPGLVKPSETLRLTCTVTGFSLSSYTVNWVRQPAGKGLEWIGYISYGGSAYYASWANGRFTISKDSSKNQVYLKLSSVTAADTAVYFCARHMQVGGAPTGSMAAFDPWGPGTLVTVSS
# VL: EAVLTQSPGTLSLSPGERATLSCQSSQSVYNNNYLSWFQQKPGQPPRLLIYGASTLTSGVPDRFSGSGSGTDFTLTISRLEPEDFAVYYCAGGYSGSSDKYAFGGGTKVEIK
# notes: as the VH of m12 (h4A11.v7); numbers count on: Kabat numbering of the heavy chain; as the VL of m12 (h4A11.v7); human IgG1; also called v7.1_S19R, S79Y; source: Expi293F, transient, purified (Protein A, SEC)
# B8: h4A11.v7.2 (antibody, V domains shown)
# VH: B7 VH with Y79W
# VL: B7 VL
# notes: as the VH of m12 (h4A11.v7); numbers count on: Kabat numbering of the heavy chain; as the VL of m12 (h4A11.v7); human IgG1; also called v7.2_S19R, S79W; source: Expi293F, transient, purified (Protein A, SEC)
# B9: h4A11.v7.3 (antibody, V domains shown)
# VH: B7 VH with K81Q
# VL: B7 VL
# notes: as the VH of m12 (h4A11.v7); numbers count on: Kabat numbering of the heavy chain; as the VL of m12 (h4A11.v7); human IgG1; also called v7.3_S19R, S79Y, K81Q; source: Expi293F, transient, purified (Protein A, SEC)
# B10: h4A11.v7.4 (antibody, V domains shown)
# VH: B7 VH with K81R
# VL: B7 VL
# notes: as the VH of m12 (h4A11.v7); numbers count on: Kabat numbering of the heavy chain; as the VL of m12 (h4A11.v7); human IgG1; also called v7.4_S19R, S79Y, K81R; source: Expi293F, transient, purified (Protein A, SEC)
# B11: h4A11.v7.5 (antibody, V domains shown)
# VH: B7 VH with Y79W, K81Q
# VL: B7 VL
# notes: as the VH of m12 (h4A11.v7); numbers count on: Kabat numbering of the heavy chain; as the VL of m12 (h4A11.v7); human IgG1; also called v7.5_S19R, S79W, K81Q; source: Expi293F, transient, purified (Protein A, SEC)
# B12: h4A11.v7.6 (antibody, V domains shown)
# VH: B7 VH with Y79W, K81R
# VL: B7 VL
# notes: as the VH of m12 (h4A11.v7); numbers count on: Kabat numbering of the heavy chain; as the VL of m12 (h4A11.v7); human IgG1; also called v7.6_S19R, S79W, K81R; source: Expi293F, transient, purified (Protein A, SEC)
# B13: rabbit monoclonal antibody 4A11 (antibody, V domains shown)
# VH: QSLEESGGRLVTPGTPLTLTCTVSGFSLSSYTVNWVRQAPGKGLEWIGYISYGGSAYYASWANGRFTISKTSATVDLKITSPTTEDTATYFCARHMQVGGAPTGSMAAFDPWGPGTLVTVSS
# VL: AAVLTQTPSPVSAAVGGTVSISCQSSQSVYNNNYLSWFQQKPGQPPKLLIYGASTLTSGVPSRFKGSGSGTQFTLTISDVQCDDAATYYCAGGYSGSSDKYAFGGGTEVVVK
# notes: VH of rbt4A11; VL of rbt4A11; Parental rabbit antibody; also called rbt4A11
# B14: humanized 4A11 variant 3 (antibody, V domains shown)
# VH: B7 VH with R19S, Y79S
# VL: DAVLTQSPDSLAVSLGERATINCQSSQSVYNNNYLSWFQQKPGQPPKLLIYGASTLTSGVPDRFSGSGSGTDFTLTISSLQAEDVAVYYCAGGYSGSSDKYAFGGGTKVEIK
# notes: as the VH of m12 (h4A11.v7): rbt4A11 CDRs and rabbit Vernier residues grafted on human germline IGHV4-59*06; as the VL of m6 (h4A11.v1): rbt4A11 CDRs and rabbit Vernier residues grafted on human germline IGKV4-1*01; human IgG1; also called h4A11.v3; v3; source: Expi293F, transient, purified (Protein A, SEC)
# B15: humanized 4A11 variant 4 (antibody, V domains shown)
# VH: B7 VH with R19S, Y79S
# VL: B1 VL
# notes: as the VH of m12 (h4A11.v7): rbt4A11 CDRs and rabbit Vernier residues grafted on human germline IGHV4-59*06; as the VL of m7 (h4A11.v2): rbt4A11 CDRs and rabbit Vernier residues grafted on human germline IGKV1D-39*01; human IgG1; also called h4A11.v4; v4; source: Expi293F, transient, purified (Protein A, SEC)
# Molecular target: T1, human mature TGFβ3 (Homo sapiens, UniProt P10600)
# Test: cell-based or functional assay
# Conditions: not given
# T1 sequence (P10600 301-412): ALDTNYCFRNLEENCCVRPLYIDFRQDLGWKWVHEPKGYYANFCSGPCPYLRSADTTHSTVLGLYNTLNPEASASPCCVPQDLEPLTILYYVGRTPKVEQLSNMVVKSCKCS
Binder,"TGFβ inhibition by HEK-Blue cells (IC50: nM), TGFb3; Blocking: Complete","TGFβ inhibition by HEK-Blue cells (IC50: nM), TGFb3; Blocking: Incomplete"
B1,0.1 nM,–
B2,0.4 nM,–
B3,0.7 nM,–
B4,0.2 nM,–
B5,0.1 nM,–
B6,0.3 nM,–
B7,–,> 667 nM
B8,–,> 667 nM
B9,–,> 667 nM
B10,–,> 667 nM
B11,–,> 667 nM
B12,–,> 667 nM

# Molecular target: T2, human mature TGFβ2 (PeproTech) (Homo sapiens, UniProt P61812)
# Test: cell-based or functional assay
# Conditions: not given
# T2 sequence (P61812 303-414): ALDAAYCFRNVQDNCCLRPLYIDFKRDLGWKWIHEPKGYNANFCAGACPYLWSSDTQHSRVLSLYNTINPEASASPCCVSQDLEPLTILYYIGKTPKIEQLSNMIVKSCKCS
Binder,"TGFβ inhibition by HEK-Blue cells (IC50: nM), TGFb2; Blocking: Complete","TGFβ inhibition by HEK-Blue cells (IC50: nM), TGFb2; Blocking: Incomplete"
B1,0.7 nM,–
B2,2.2 nM,–
B3,1.7 nM,–
B4,2.2 nM,–
B5,0.7 nM,–
B6,1.7 nM,–
B7,–,> 667 nM
B8,–,> 667 nM
B9,–,> 667 nM
B10,–,> 667 nM
B11,–,> 667 nM
B12,–,> 667 nM

# Molecular target: T1, human mature TGFβ3
# Test: cell-based or functional assay
# Conditions: not given
# Remark: another data set of the same source
row,Binder,"TGFβ inhibition by HEK-Blue cells (IC50: nM), TGFb3; Blocking: Complete"
1,B13,0.1 nM
2,B14,0.2 nM
3,B15,0.1 nM

# Molecular target: T3, human mature TGFβ1 (Homo sapiens, UniProt P01137)
# Test: cell-based or functional assay
# Conditions: not given
# T3 sequence (P01137 279-390): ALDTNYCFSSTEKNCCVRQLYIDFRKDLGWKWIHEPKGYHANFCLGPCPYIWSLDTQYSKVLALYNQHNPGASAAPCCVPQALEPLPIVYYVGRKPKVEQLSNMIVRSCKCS
row,Binder,"TGFβ inhibition by HEK-Blue cells (IC50: nM), TGFb1"
1,B13,> 667 nM
2,B14,> 667 nM
3,B15,> 667 nM

# Molecular target: T2, human mature TGFβ2 (PeproTech)
# Test: cell-based or functional assay
# Conditions: not given
# Remark: another data set of the same source
row,Binder,"TGFβ inhibition by HEK-Blue cells (IC50: nM), TGFb2; Blocking: Complete"
1,B13,0.9 nM
2,B14,3.9 nM
3,B15,1.9 nM

# Molecular target: T1, human mature TGFβ3
# Test: SPR; Biacore T200; antibody captured on a Protein A sensor chip (about 90 RU); mature TGFβ isoform injected, five-fold dilutions 0.008 nM to 5 nM; HBS-EP pH 7.4, 150 mM NaCl; 37 °C; 100 μl/min; 3 min association, 60 min dissociation; one-to-one Langmuir model, global fit
# Conditions: both partners purified
row,Binder,Kd
1,B1,0.0006 nM
2,B2,0.006 nM
3,B3,0.0055 nM
4,B4,0.0006 nM
5,B5,0.0006 nM
6,B6,0.0005 nM
7,B7,0.0405 nM
8,B8,0.0228 nM
9,B9,0.008 nM
10,B10,0.0188 nM
11,B11,0.0072 nM
12,B12,0.0156 nM

# Molecular target: T3, human mature TGFβ1
# Test: as above
# Conditions: both partners purified
Binder,Kd,binding result
B1,> 5 nM,no binding (tested: 5 nM)
B2,> 5 nM,no binding (tested: 5 nM)
B3,> 5 nM,no binding (tested: 5 nM)
B4,> 5 nM,no binding (tested: 5 nM)
B5,> 5 nM,no binding (tested: 5 nM)
B6,> 5 nM,no binding (tested: 5 nM)
B7,> 5 nM,no binding (tested: 5 nM)
B8,> 5 nM,no binding (tested: 5 nM)
B9,> 5 nM,no binding (tested: 5 nM)
B10,> 5 nM,no binding (tested: 5 nM)
B11,> 5 nM,no binding (tested: 5 nM)
B12,> 5 nM,no binding (tested: 5 nM)

# Molecular target: T2, human mature TGFβ2 (PeproTech)
# Test: as above
# Conditions: both partners purified
row,Binder,Kd
1,B1,0.0022 nM
2,B2,0.0045 nM
3,B3,0.0034 nM
4,B4,0.0014 nM
5,B5,0.0017 nM
6,B6,0.0019 nM
7,B7,0.0107 nM
8,B8,0.0096 nM
9,B9,0.0057 nM
10,B10,0.0112 nM
11,B11,0.0056 nM
12,B12,0.0097 nM

# Molecular target: T1, human mature TGFβ3
# Test: as above
# Conditions: both partners purified
# Remark: another data set of the same source
row,Binder,Kd
1,B13,0.0012 nM
2,B14,0.0121 nM
3,B15,0.0101 nM

# Molecular target: T3, human mature TGFβ1
# Test: as above
# Conditions: both partners purified
# Remark: another data set of the same source
Binder,Kd,binding result
B13,> 5 nM,no binding (tested: 5 nM)
B14,> 5 nM,no binding (tested: 5 nM)
B15,> 5 nM,no binding (tested: 5 nM)

# Molecular target: T2, human mature TGFβ2 (PeproTech)
# Test: as above
# Conditions: both partners purified
# Remark: another data set of the same source
row,Binder,Kd
1,B13,0.0016 nM
2,B14,0.0096 nM
3,B15,0.01 nM
